Laboratory results: patent US6365161 (Bristol-Myers Squibb, dated 2002)

Target: T1, carcinoembryonic antigen (CEA) (UniProt P06731 35-685)
T1 sequence (looked up): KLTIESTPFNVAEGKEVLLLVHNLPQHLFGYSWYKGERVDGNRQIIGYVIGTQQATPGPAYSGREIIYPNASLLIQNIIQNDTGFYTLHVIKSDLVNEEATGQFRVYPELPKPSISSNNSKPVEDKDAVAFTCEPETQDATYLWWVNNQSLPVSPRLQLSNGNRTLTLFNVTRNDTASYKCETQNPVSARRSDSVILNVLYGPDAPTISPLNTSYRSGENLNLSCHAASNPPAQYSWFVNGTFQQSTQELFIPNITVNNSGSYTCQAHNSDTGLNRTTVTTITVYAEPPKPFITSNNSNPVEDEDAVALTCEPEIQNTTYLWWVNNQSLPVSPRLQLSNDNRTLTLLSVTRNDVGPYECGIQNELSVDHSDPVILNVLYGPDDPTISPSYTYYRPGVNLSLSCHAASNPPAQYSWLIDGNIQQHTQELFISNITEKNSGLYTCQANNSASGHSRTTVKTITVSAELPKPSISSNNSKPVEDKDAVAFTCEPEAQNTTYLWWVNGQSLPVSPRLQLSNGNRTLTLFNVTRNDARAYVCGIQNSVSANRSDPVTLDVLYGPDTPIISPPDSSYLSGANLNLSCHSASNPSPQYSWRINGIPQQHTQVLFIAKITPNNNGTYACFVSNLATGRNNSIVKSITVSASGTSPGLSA
Assay: bispecific ELISA, plates coated with CEA, detection with soluble FcγRI/IgM-µ
Description: ELISA plates are coated with CEA and the blocked with 5% PBA.

binding result: no binding
B1: single chain antibody H22 encoded by construct 225 (scFv)
scFv: DIQLVESGGGVVQPGRSLRLSCSSSGFIFSDNYMYWVRQAPGKGLEWVATISDGGSYTYYPDSVKGRFTISRDNSKNTLFLQMDSLRPEDTGVYFCARGYYRYEGAMDYWGQGTPVTVSSGGGGSGGGGSGGGGSDIQLTQSPSSLSASVGDRVTITCKSSQSVLYSSNQKNYLAWYQQKPGKAPKLLIYWASTRESGVPSRFSGSGSGTDFTFTISSLQPEDIATYYCHQYLSSWTFGQGTKVEIKSSCSSGGGGSDIAAAEQKLISEEDLNGAAHHHHHH
notes: also called single chain H22 antibody
